Assay results as given in patent US20200308257A1.

Columns and labels:
Assay in all cases: cell-based or functional assay
[1] = target: H1N1 circulating viruses (n=18) and vaccines strains (n=3)
[2] = target: H3N2 circulating viruses (n=30) and vaccines strains (n=4)
[3] = target: all H3N2 and H1N1 circulating strains and vaccines strains (n=55 viruses)

B1: VIS410 (antibody, V domains shown)
VH: QVQLLETGGGLVKPGQSLKLSCAASGFTFTSYAMHWVRQPPGKGLEWVAVVSYDGNYKYYADSVQGRFTISRDNSKNTLYLQMNSLRAEDTAVYYCAKDSRLRSLLYFEWLSQGYFNPWGQGTTLTVSS
VL: DIQMTQSPSSLSASVGDRVTITCRSSQSITFDYKNYLAWYQQKPGKAPKLLIYWGSYLESGVPSRFSGSGSGTDFTLTISSLQPEDFATYYCQQHYRTPPSFGQGTKVEIK
In the case of B1, the Mean IC50, phenotypic IC50 assay [1] is reported as 0.6 µg/mL, the Mean IC50, phenotypic IC50 assay [2] is reported as 1.3 µg/mL and the Median IC50, phenotypic IC50 assay [3] is reported as 0.9 µg/mL.
